Data reported in the DeepSol protein solubility set.

assay: soluble on expression in E. coli; label from the status in PepcDB or PDB records

Sequence	soluble on expression in E. coli
MGSDKIHHHHHHPVWNPDNGNGTFTNPIMWGDWPDPDVIRVGDDFYFVSTSMHYVPGCPIATSKDLVNWKMAGYAVDRYDEDARYDLKGGDRYLRGSWAATIRHHNGKFYVGFCTPSWEGEGPGHFSICIADDVKGPWERTIFPEYLYDPGLLFDDDGKVYVFHGQGTLYVTELASDAKSVKGEKVKIWDKRFKNAHEFGGGYGMEGAHAYKINGKYYLTCPAGGTEGWQICLRSDNIYGPYEHKLIMNDSGSYPPNGLHQGGMVQLKNGDWWFIIMQDRGPIGRVPHLVPVKWVDGWPMLGSGGKDIITYPKPEVGKTYPFASPATTDEFNTSSLGLQWQWNHNPDNSRWSLKERKGHMRLKASYAESLKTARNTLTQRVQGPSSEATVELDVSGLKDGNVAGFGVFEFPYAYVAVEQTNGEKKIVMCNDGQTIETIDRFEGNKIWIRARVMDVGFRAVFYYSTDGKYFLPIGNELSMGLGLVWTANRFALFNFSKEKAGEDGYTDFNWFRFTNK	not soluble
MAEITFKGGPVTLVGQEVKVGDQAPDFTVLTNSLEEKSLADMKGKVTIISVIPSIDTGVCDAQTRRFNEEAAKLGDVNVYTISADLPFAQARWCGANGIDKVETLSDHRDMSFGEAFGVYIKELRLLARSVFVLDENGKVVYAEYVSEATNHPNYEKPIEAAKALVK	soluble
MSLFMPPVFPAHWHVSQPVLIADTFSSLVWKVSLPDGTPAIVKGLKPIEDIADELRGADYLVWRNGRGAVRLLGRENNLMLLEYAGERMLSHIVAEHGDYQATEIAAELMAKLYAASEEPLPSALLPIRDRFAALFQRARDDQNAGCQTDYVHAAIIADQMMSNASELRGLHGDLHHENIMFSSRGWLVIDPVGLVGEVGFGAANMFYDPADRDDLCLDPRRIAQMADAFSRALDVDPRRLLDQAYAYGCLSAAWNADGEEEQRDLAIAAAIKQVRQTSYEGHHHHHH	soluble
SNAVTATQLAAKATTLYYLHKQAMTDEVSLLLEQALQLEPYNEAALSLIANDHFISFRFQEAIDTWVLLLDSNDPNLDRVTIIESINKAKKLM	soluble
TCPAACHCPLEAPKCAPGVGLVRDGCGCCKVCAKQLNEDCSKTQPCDHTKGLECNFGASSTALKGICRAQSEGRPCEYNSRIYQNGESFQPNCKHQCTCIDGAVGCIPLCPQELSLPNLGCPNPRLVKVTGQCCEEWVCDEDSIKDPMEDQDGLLGKELGFDASEVELTRNNELIAVGKGSSLKRLPVFGMEPRILYNPLQGQKCIVQTTSWSQCSKTCGTGISTRVTNDNPECRLVKETRICEVRPCGQPVYSSLKKGKKCSKTKKSPEPVRFTYAGCLSVKKYRPKYCGSCVDGRCCTPQLTRTVKMRFRCEDGETFSKNVMMIQSCKCNYNCPHANEAAFPFYRLFNDIHKFRD	soluble
MAHHHHHHMGACGSKGSTSDKGLASDKDGKNAKDRKEAWERIRQAIPREKTAEAKQRRIELFKKFDKNETGKLCYDEVHSGCLEVLKLDEFTPRVRDITKRAFDKARVLGSKLENKGSEDFVEFLEFRLMLCYIYDFFELTVMFDEIDASGNMLVDEEELKRAVPKLEAWGAKVEDPAALFKEIDKNGTGSVTFDEFAAWASAVKLDADGDPDNVPERA	soluble
MVKTRLTAEEFFALPLERGELVDGEVREERPPKPEHGRIALRIGYHLMRWLEETGRGVAGVEGGFVLRRDPDRVRSPDVWFLSHERLKEVTREGFYEGAPDLAVEVVSPGEEAEGVLAKVLDYLEAGAKAVWLVYPELKAVEVYGRGGEGRLLRAHEVLEGGEALPGFRLPLEALFGQ	soluble
MAHHHHHHSLIKTEFKGNNIPYEYAAGADVSDSINGNPIKSFPFEVIELPEGTKYLAWSLIDYDAIPVCGFAWIHWSVANVSVSGNSISIKADLSRTKGDYVQGKNSFTSGLLAEDFSEIENHYVGPTPPDQDHQYELTVYALDHSLNLKNGFYLNEFLKEVNQHKIDQTSINLIGRKEG	not soluble
MAKEKTVYVCSNCGQESPKWVGKCPSCGEWNTYVEEIVRKETTNRRPVSGIETQKAKPVILSEIEADDEPRINMHDDELNRVLGGGLVPGSLVLIGGEPGIGKSTLVMQTVLRMPDKKILYVSGEESARQLKLRADRLSEVSSDCLIVCETSLEQIYVHIKNTSPDLVIIDSIQTISTENIESSPGSIAQVRECSASILRFAKETHTPVLLIGHINKEGSIAGPKVLEHIVDTVLQFEGDQHYMYRILRSIKNRFGSTAELGIYEMRQDGLRQVSNPSELLLSQDHEGMSGVAIASAIEGVRPFLIETQALVSSAVYGNPQRSATGFDIRRMNMLLAVLEKRVGFKLAQKDVFLNIAGGLKVNDPAIDLAVISAILSSNMDAAVEPEVCMAGEIGLSGEIRPVNRIEQRIGEAEKLGFKRFLLPKYNLQGIDTQKLKIELVPVRKVEEAFRALFG	not soluble
MAHHHHHHMSQLYRGRSYQNILRKLPRNLVVFDGHCLMCQARVRHVLERNFSYFSFIRIMQGVDPVKLEANKMLFCSFDSVEWREVRRNFPHLLNDADGVVLIEKVPSKTASFLSRVRQGQKQRRQQGRTGGMNSSEEKRGLKNFFQTNNFSFPLASSSVTTPRGLAGGFDGVEEDVDIVVSVKYEAVCRIGMKLDRWLLRTLFRCLYYMLPRWMGDRWYDYILRRRQLWGTSEEDAVRYPKRVPGLKERTWKL	not soluble
SLTTLKTMTRVQLGAMGEALAVDYLTSMGLRILNRNWRCRYGELDVIACDAATRTVVFVEVKTRTGDGYGGLAHAVTERKVRRLRRLAGLWLADQEERWAAVRIDVIGVRVGPKNSGRTPELTHLQGIG	soluble
MSLTDEPKLLAEPREGVPNVIDTLPAFRDYCSELASSHGSLAADAERASGFRYGHEDWLVQFKRDGAGIGLLDPQALAAAGADWNDFNRAVGDAVWILHDSLQDLPGFDELGMEPQRLFDTEIAARLLGLKRFGLAAVTEHFLGLTLAKEHSAADWSYRPLPRDWRNYAALDVELLIELETKMRAELKRQGKMEWAQEEFDYALKEGLGPRKEHLIPWMHVSHITEVMRDRQALAIVRALWTRRDELAREYDIAPTLLLSDSSIIEVAKRKPHNAAQFRSIRSINERVRIHTDSEQDKMFERYAPIQRKIKPSMWKNIIQDALALPPSEWPDVDGGAARRHESQSASAPKSIRVWKERYPERLQVLNRVRKAVSQIAEDTRTPVEIVIKPQYLRNLCWTDEPRKRDVARFLSEQGARDWQVSLVAESVSRAIEGHHHHHH	soluble
MGSDKIHHHHHHMSIIYRRRSIRKYQKKDVPDELVKEIIRAAMHAPSACNQQPWHFVVIRNEETKKKIAEIHPHAQMSAEAPVVILVCGDPTLEKCKGYWIQDCSAAVENLLLRATELGLGAVWCGVYPREERVKAFRELLGIPEHVVPFALVPVGYPAEHPVQVDRFKPERIHYEKW	not soluble
GLFDKLKSLVSDDKKDTGTIEIIAPLSGEIVNIEDVPDVVFAEKIVGDGIAIKPTGNKMVAPVDGTIGKIFETNHAFSIESDSGVELFVHFGIDTVELKGEGFKRIAEEGQRVKVGDTVIEFDLPLLEEKAKSTLTPVVISNMDEIKELIKLSGSVTVGETPVIRIKK	soluble
GMLFSIQTCPCQINPALNAVSTPLLYQDCCQPYHDGLYNQEVEDSDAIRADTAEHLMRTRYSAFVLVKPEYIVKTTLPAQQDLLDIKAIENWAKETDWAGLEVVAHTPKLSKRHAQVEFKAYFKTPDGLQAHHELSTFVKIKNKANSDASWYFLDPTVSMSVTQKQPCICGSGEKFKRCCGMYI	soluble
MSGAGKKIADVAFKASRTIDWDGMAKVLVTDEARREFSNLRRAFDEVNTQLQTKFSQEPEPIDWDYYRKGIGAGIVDKYKEAYDSIEIPKYVDKVTPEYKPKFDALLVELKEAEQKSLKESERLEKEIADVQEISKKLSTMTADEYFEKHPELKKKFDDEIRNDNWGY	soluble
MKRLWKKVGSGVKNANYLKKSVEEVAKIEKGETKVVPPKYPTEKSREVSEEIKKELAMKNESLVENMNKMYIKSTDPVERWTSTKDLPTRESEFLHRNDPIWEYGFYEPPVERIPKDKLMFKEALEYLRFRQELLSDSSSPAQKKQAAEFVADHVVTSRVNAETLDDIYEYFRPFERKDKQKVVNRHALAALQDHVQGNSDERRILDEAKDVGKKIRHISNNTKFLDEYQRLEDEEKDKVREAIAQLRQEEHERLNKRLGQLGEIEKTAQEAMKKAVEEKKEK	not soluble
GMRQGAGLGYRRDLAEGFLQLRNNDRIQFMEIAPENWIKMGGFARYQFDKVAEKIPILIHGLSLSLGGQAPLDKELLSSIKAMIKQYNTPFFSDHLSFCECDGHLYDLLPMPFTDEAVKHTAARIREVQDFLEIQISVENTSYYLHSETSTMNEVEFLNAIVQEANCGIHLDVNNIYVNAVNHGLLDPHVFIDNVDLKRVNYIHIAGHDDEHAATEVQIQTSESFNKIKGDLRHLPPLLVDTHGENVKGTVWDLLEYTYARLSHMPPTLLERDFNFPPFEKLCKEVDIIHQLQQKYVKKRGLSWLKI	soluble
AAKEEADSRISPGNIFEEKAKFLVMMESSIYAAKRGDALIAQILILAGRLSKNEAPKEALLFMEKTITGEIDLSVAKNLLIAYMRIRREEKQRDLNSVKNDDAIPSDINIDDLTNT	not soluble
MRYIAGIDIGNSSTEVALATLDEAGALTITHSALAETTGIKGTLRNVFGIQEALALVARGAGIAVSDISLIRINEATPVIGDVAMETITETIITESTMIGHNPKTPGGAGLGTGITITPQELLTRPADAPYILVVSSAFDFADIASVINASLRAGYQITGVILQRDDGVLVSNRLEKPLPIVDEVLYIDRIPLGMLAAIEVAVPGKVIETLSNPYGIATVFNLSPEETKNIVPMARALIGNRSAVVVKTPSGDVKARAIPAGNLELLAQGRSVRVDVAAGAEAIMKAVDGCGRLDNVTGESGTNIGGMLEHVRQTMAELTNKPSSEIFIQDLLAVDTSVPVSVTGGLAGEFSLEQAVGIASMVKSDRLQMAMIAREIEQKLNIDVQIGGAEAEAAILGALTTPGTTRPLAILDLGAGSTDASIINPKGDIIATHLAGAGDMVTMIIARELGLEDRYLAEEIKKYPLAKVESLFHLRHEDGSVQFFSTPLPPAVFARVCVVKADELVPLPGDLALEKVRAIRRSAKERVFVTNALRALRQVSPTGNIRDIPFVVLVGGSSLDFEVPQLVTDALAHYRLVAGRGNIRGSEGPRNAVATGLILSWHKEFAHER	soluble
MGSDKIHHHHHHMQLITSLDIRNSEYLSKDRLISYHHQLRLIFSLGNQVKNVLEIGIFNSLLTDILKNNGYNVTTADVDPNLKPEMILDLTTDFSLPKDKFDAIVLFQVLEHFPYEQSEEALKKLAEATKKFLVISIPYCTQYLSFQIKSSFSGRPRYLLLSVPKFWSTKPVCDEHYWEMGLKGYPKKRILNSVANAGLTVKQEFIDPSYPYHYFLVLEKTNNI	not soluble
MSAGKTGNHLMISDSKLLASAAWDAQSLNELKAKAGEDPAANIRPVARQVEGMFVQMMLKSMRDALPKDGLFSSEHTRLYTSMYDQQIAQQMTAGKGLGLAEMMVKQMTPEQPLPEEPTPAAPMKFPLETVVRYQNQALSQLVQKAVPRNYDDSLPGNSKAFLAQLSLPAQLASQQSGVPHHLILAQAALESGWGQRQIRRENGEPSYNLFGVKASGNWKGPVTEITTTEYENGEAKKVKAKFRVYSSYLEALSDYVGLLTRNPRYAAVTTAASAEQGAQALQDAGYATDPHYARKLTNMIQQMKSISDKVSKTYSMNIDNLF	soluble
